According to patent publication US20040253631:

Columns and labels:
[1] = target: T1, Lambda integrase (Int) (bacteriophage lambda) (UniProt P03700); experiment: cell_activity; details: Xis, IHF
T1 sequence: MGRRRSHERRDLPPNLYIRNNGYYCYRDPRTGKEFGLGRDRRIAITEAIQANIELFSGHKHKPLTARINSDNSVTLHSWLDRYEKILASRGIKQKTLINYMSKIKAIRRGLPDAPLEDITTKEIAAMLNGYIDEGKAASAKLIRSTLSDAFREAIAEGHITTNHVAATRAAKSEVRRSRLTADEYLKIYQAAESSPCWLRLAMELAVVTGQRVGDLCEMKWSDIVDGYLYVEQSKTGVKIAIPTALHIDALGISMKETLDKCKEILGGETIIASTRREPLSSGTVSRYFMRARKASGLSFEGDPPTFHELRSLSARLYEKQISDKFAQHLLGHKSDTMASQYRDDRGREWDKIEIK

[2] = target: Cre recombinase (bacteriophage P1) (UniProt P06956); experiment: cell_activity; details: background 140 without Cre; 37 C; 19/24 correct product
Sequence of UniProt P06956 (P06956 whole entry): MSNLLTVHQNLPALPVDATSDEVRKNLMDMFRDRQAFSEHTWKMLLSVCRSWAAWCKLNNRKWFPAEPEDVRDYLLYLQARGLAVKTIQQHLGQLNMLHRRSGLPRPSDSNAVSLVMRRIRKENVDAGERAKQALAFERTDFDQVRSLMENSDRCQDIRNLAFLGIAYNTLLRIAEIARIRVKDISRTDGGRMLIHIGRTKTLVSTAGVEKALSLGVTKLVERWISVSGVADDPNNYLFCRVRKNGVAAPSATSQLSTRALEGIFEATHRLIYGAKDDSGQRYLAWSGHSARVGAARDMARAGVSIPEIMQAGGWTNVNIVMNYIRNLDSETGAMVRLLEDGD

Row | Substance | activity ([1]; partner attR'1 (N5), Cre, background 1) [colonies] | activity ([1]; partner attR'2 (N6), Cre) [colonies] | activity ([1]; partner attR'wt, Cre (loxP for second recombination), background 1) [colonies] | activity [2] [colonies]
1 | attL wt | 4 | 0 | 147 | –
2 | loxP / loxP 511 plasmids | – | – | – | 760
